Source: the Human Domainome abundance scans (Beltran et al. 2025)
± gives the uncertainty stated by the source.

B1: V(D)J recombination-activating protein 2, residues 415 to 491; numbered along this chain, P55895 (parent)
chain: YWITCCPTCDVDINTWVPFYSTELNKPAMIYCSHGDGHWVHAQCMDLAERTLIHLSAGSNKYYCNEHVEIARALHTP

Variants of: B1
Test: abundance fitness (aPCA) (normalised: wild type 0, dead -1); higher = more abundant; growth selection in yeast, the domain comes from the species named
Conditions: Homo sapiens

Q: Which abundance fitness does the source give for YWITCCPDCDVDINTWVPFYSTELNKPAMIYCSHGDGHWVHAQCMDLAERTLIHLSAGSNKYYCNEHVEIARALHTP [T8D] here?
A: -0.279 ± 0.35

Q: For YWITCCPPCDVDINTWVPFYSTELNKPAMIYCSHGDGHWVHAQCMDLAERTLIHLSAGSNKYYCNEHVEIARALHTP [T8P], which abundance fitness is on record?
A: -0.159 ± 0.3

Q: With YWITCCPTCDVDINTWVPFYSTELNKPAMIYCSHGDGHWVHAQCMDLAERTSIHLSAGSNKYYCNEHVEIARALHTP [L52S] as the variant, how does the abundance fitness read?
A: -0.262 ± 0.07

Q: For YWITCCPTCDVDINTWVPFYSTELNKPAMIYCSHGDGHWVHAQCMDLAERTTIHLSAGSNKYYCNEHVEIARALHTP [L52T], which abundance fitness is on record?
A: -0.161 ± 0.086

Q: Which abundance fitness does the source give for YWITCCPTCDVDINTWVPFYSTELNKPAMIYCSHGDGHWVHAQCMDLAERTLIHQSAGSNKYYCNEHVEIARALHTP [L55Q] here?
A: 0.027 ± 0.074

Q: For YWITCCPTCDVDINTWVPPYSTELNKPAMIYCSHGDGHWVHAQCMDLAERTLIHLSAGSNKYYCNEHVEIARALHTP [F19P], which abundance fitness is on record?
A: -0.509 ± 0.15

Q: Which abundance fitness does the source give for YWITCCPTCDVDISTWVPFYSTELNKPAMIYCSHGDGHWVHAQCMDLAERTLIHLSAGSNKYYCNEHVEIARALHTP [N14S] here?
A: -0.419 ± 0.33

Q: For YWITCCPTCDVDINTWVPFYSTELNKPAMIYCSHGDGHWVHAQCMDLAERTLIHLSAGSNKYYCNEHVEIARALHTS [P77S], which abundance fitness is on record?
A: -0.354 ± 0.29

Q: For YWITCCPTCDVDINTWVPFYSTELNKPAMIYCSHGDGHWVHAQCMDLAERTLIHLSAGSNKYYCNEHVEIARALHTR [P77R], which abundance fitness is on record?
A: 0.152 ± 0.31

Q: Which abundance fitness does the source give for YWITCCPTCDVDINTWVPFYSTELNKPAMIYCSHGDGHWVHAQCMDLAERTLIHLSAGSNKYYCNEHVEIARALHTA [P77A] here?
A: -0.123 ± 0.21

Q: With YWITCCPTCDVDINTWVPFYDTELNKPAMIYCSHGDGHWVHAQCMDLAERTLIHLSAGSNKYYCNEHVEIARALHTP [S21D] as the variant, how does the abundance fitness read?
A: -0.17 ± 0.26

Q: With YWITCCPTCDVDINTWVPFYSTELNKPAMIYCSHGDGHWVHAQCWDLAERTLIHLSAGSNKYYCNEHVEIARALHTP [M45W] as the variant, how does the abundance fitness read?
A: -0.431 ± 0.13

Q: With YWITCCPTCDVDINTWVPFYSTELNKPAMIYCSHGDGHWVHAQCMDLAERTLIHLSAGSNKHYCNEHVEIARALHTP [Y62H] as the variant, how does the abundance fitness read?
A: -0.377 ± 0.14

Q: With YWITCCPTCDVDINTWVPFYSTELNKPAMIYCSHGDGHWVHAQCMDLAERTLIHLSAGSNKPYCNEHVEIARALHTP [Y62P] as the variant, how does the abundance fitness read?
A: -0.67 ± 0.084

Q: With YWITCCPTCDVDINTWVPFYSTELNKPAMIYCSHGDGHWVHAQCMDLAERTLIHLSAGSNKAYCNEHVEIARALHTP [Y62A] as the variant, how does the abundance fitness read?
A: -0.328 ± 0.08

Q: Which abundance fitness does the source give for YWITCCPTCVVDINTWVPFYSTELNKPAMIYCSHGDGHWVHAQCMDLAERTLIHLSAGSNKYYCNEHVEIARALHTP [D10V] here?
A: 0.145 ± 0.19

Q: Which abundance fitness does the source give for YWITCCPTCMVDINTWVPFYSTELNKPAMIYCSHGDGHWVHAQCMDLAERTLIHLSAGSNKYYCNEHVEIARALHTP [D10M] here?
A: -0.325 ± 0.47

Q: Which abundance fitness does the source give for YWITCCPTCDVDINTWVPFYSTELNKPAMIYCSHGDGHWVHAQCMMLAERTLIHLSAGSNKYYCNEHVEIARALHTP [D46M] here?
A: 0.071 ± 0.07

Q: Which abundance fitness does the source give for YWITCCPTCDVDINTWVPFYSTELNKPAMIYCSHGDGHWVHAQCMCLAERTLIHLSAGSNKYYCNEHVEIARALHTP [D46C] here?
A: 0.036 ± 0.083

Q: Which abundance fitness does the source give for YWITCCPTCDVDINTWVPFYSTELNKPAMIYCSHGDGHWVHAQCMDLATRTLIHLSAGSNKYYCNEHVEIARALHTP [E49T] here?
A: -0.345 ± 0.075

Q: With YWITCCPTCDVDINTWVPFYSTELNKPAMIYCSHGDGHWVHAQCMDLANRTLIHLSAGSNKYYCNEHVEIARALHTP [E49N] as the variant, how does the abundance fitness read?
A: -0.183 ± 0.14

Q: With YWITCCPTCDVDINTWVPFYSTELNKPAMIYCSHGDGHWVHAQQMDLAERTLIHLSAGSNKYYCNEHVEIARALHTP [C44Q] as the variant, how does the abundance fitness read?
A: -0.969 ± 0.12

Q: Which abundance fitness does the source give for YWITCCPTCDVDINTWVPFYSTELNKPAMIYCSHGDGHWVHAQCMDLAERTLIHLSAGSNKYYQNEHVEIARALHTP [C64Q] here?
A: -0.768 ± 0.23

Q: Which abundance fitness does the source give for YWITCCPTCDVDINTWVPFYSTELNKPAMIYCSHGDGHWCHAQCMDLAERTLIHLSAGSNKYYCNEHVEIARALHTP [V40C] here?
A: -0.206 ± 0.18

Q: With YWITCCPTCDVDINTWVPFYSTELNKPAMIYCSHGDGHWSHAQCMDLAERTLIHLSAGSNKYYCNEHVEIARALHTP [V40S] as the variant, how does the abundance fitness read?
A: -0.456 ± 0.095

Q: With YWITCCPTCDVDINTWVPFYSTELNKPHMIYCSHGDGHWVHAQCMDLAERTLIHLSAGSNKYYCNEHVEIARALHTP [A28H] as the variant, how does the abundance fitness read?
A: -0.23 ± 0.34

Q: For YWITCCPTCDVDINTWVPFYSTELNKPAMIYCSHGDGHWVHMQCMDLAERTLIHLSAGSNKYYCNEHVEIARALHTP [A42M], which abundance fitness is on record?
A: -0.313 ± 0.14

Q: For YWITCCPTCDVDINTWVPFYSTELNKPAMIYCSHGDGHWVHIQCMDLAERTLIHLSAGSNKYYCNEHVEIARALHTP [A42I], which abundance fitness is on record?
A: -0.563 ± 0.38

Q: With YWITCCDTCDVDINTWVPFYSTELNKPAMIYCSHGDGHWVHAQCMDLAERTLIHLSAGSNKYYCNEHVEIARALHTP [P7D] as the variant, how does the abundance fitness read?
A: 0.002 ± 0.28

Q: Which abundance fitness does the source give for YWITCCRTCDVDINTWVPFYSTELNKPAMIYCSHGDGHWVHAQCMDLAERTLIHLSAGSNKYYCNEHVEIARALHTP [P7R] here?
A: -0.635 ± 0.31

Q: For YWITCCPTCDVDINTWVPFYSTELNKPAMIYCGHGDGHWVHAQCMDLAERTLIHLSAGSNKYYCNEHVEIARALHTP [S33G], which abundance fitness is on record?
A: -0.065 ± 0.046

Q: With YWITCCPTCDVDINTWVPFYSTELNKPAMIYCWHGDGHWVHAQCMDLAERTLIHLSAGSNKYYCNEHVEIARALHTP [S33W] as the variant, how does the abundance fitness read?
A: -0.072 ± 0.052

Q: For YWITCCPTCDVDINTWVPFYSTELNKPAMIYCFHGDGHWVHAQCMDLAERTLIHLSAGSNKYYCNEHVEIARALHTP [S33F], which abundance fitness is on record?
A: -0.017 ± 0.061

Q: Which abundance fitness does the source give for YWITCCPTCDVDINTWVPFYSTELNKPAMIYLSHGDGHWVHAQCMDLAERTLIHLSAGSNKYYCNEHVEIARALHTP [C32L] here?
A: -0.999 ± 0.13

Q: For YWITCCPTCDVDINTWVPFYSTELNKPAMIYTSHGDGHWVHAQCMDLAERTLIHLSAGSNKYYCNEHVEIARALHTP [C32T], which abundance fitness is on record?
A: -0.99 ± 0.18
